Source: patent publication US20030114377A1

Key:
[1] = molecular target: soluble CD14 DDED deletion mutant (residues 9-12 of SEQ ID NO: 1 deleted) (human) (UniProt P08571); test: ELISA, mutant CD14 coated, biotinylated mAb; grade = OD as % of wild-type CD14 (+++ 76-90%)
[2] = molecular target: soluble CD14 DDED/PQPD double deletion mutant (residues 9-12 and 22-25 of SEQ ID NO: 1 deleted) (human) (UniProt P08571); test: as above
[3] = molecular target: soluble CD14 PQPD deletion mutant (residues 22-25 of SEQ ID NO: 1 deleted) (human) (UniProt P08571); test: as above
[4] = molecular target: soluble CD14 AVEVE deletion mutant (residues 35-39 of SEQ ID NO: 1 deleted) (human) (UniProt P08571); test: ELISA, mutant CD14 coated, biotinylated mAb; grade = OD as % of wild-type CD14 (++ 51-75%)
[5] = molecular target: soluble CD14 DPRQY deletion mutant (residues 59-63 of SEQ ID NO: 1 deleted) (human) (UniProt P08571); test: as above
[6] = molecular target: soluble CD14 DDED deletion mutant (residues 9-12 of SEQ ID NO: 1 deleted) (human) (UniProt P08571); test: ELISA, mutant CD14 coated, biotinylated mAb; grade = OD as % of wild-type CD14 (+ 11-50%)
[7] = molecular target: soluble CD14 PQPD deletion mutant (residues 22-25 of SEQ ID NO: 1 deleted) (human) (UniProt P08571); test: as above
[8] = molecular target: soluble CD14 DPRQY deletion mutant (residues 59-63 of SEQ ID NO: 1 deleted) (human) (UniProt P08571); test: ELISA, mutant CD14 coated, biotinylated mAb; grade = OD as % of wild-type CD14 (++++ >90%)
[9] = molecular target: soluble CD14 DDED deletion mutant (residues 9-12 of SEQ ID NO: 1 deleted) (human) (UniProt P08571); test: as above
[10] = molecular target: soluble CD14 DDED/PQPD double deletion mutant (residues 9-12 and 22-25 of SEQ ID NO: 1 deleted) (human) (UniProt P08571); test: as above

anti-CD14 monoclonal antibody MEM-18
OD405 as percent of wild-type CD14 OD [1]: 76 to 90%
OD405 as percent of wild-type CD14 OD [2]: 76 to 90%
OD405 as percent of wild-type CD14 OD [3]: 76 to 90%
OD405 as percent of wild-type CD14 OD [4]: 51 to 75%

anti-CD14 monoclonal antibody MO-2
OD405 as percent of wild-type CD14 OD [5]: 51 to 75%

anti-CD14 monoclonal antibody UCHM-1
OD405 as percent of wild-type CD14 OD [6]: 11 to 50%
OD405 as percent of wild-type CD14 OD [7]: 11 to 50%
OD405 as percent of wild-type CD14 OD [8]: > 90%

anti-CD14 monoclonal antibody 63D3
OD405 as percent of wild-type CD14 OD [3]: 76 to 90%
OD405 as percent of wild-type CD14 OD [4]: 51 to 75%
OD405 as percent of wild-type CD14 OD [9]: > 90%
OD405 as percent of wild-type CD14 OD [10]: > 90%
OD405 as percent of wild-type CD14 OD [8]: > 90%

anti-CD14 monoclonal antibody MY4
OD405 as percent of wild-type CD14 OD [8]: > 90%
